Measured values: publication PMC7979743 (Nature Communications, 2021)

B1: LMIV230-02 human monoclonal antibody (IgG1, kappa) (antibody, V domains shown)
VH: QVQLVQSGAEVKKPGSSVKVSCKASGGTFNSYGISWVRQAPGQGLEWVGGIIPSFGTADYAQKFQGRVTFTTDTSTSTAYMEVSSLRSEDTAVYYCAGSSWSSGTYYGRSAYWGQGTLVTVSS
VL: EIVMTQSPASLALSLGERATINCKSSQSVLYSSNNKNYLAWYQQKPGQPPKLLIYWASTRESGVPDRFSGSGSGTDFTLTISSLQAGDVAVYHCQQYYSTPYSFGQGTKLEIK
B2: LMIV230-01 human monoclonal antibody (IgG1, kappa) (antibody, V domains shown)
VH: QVQLVQSGAEVKKPGSSVKVSCKVSGGTFNTYAIIWVRQAPGQGLEWMGAIIPFQDRGQYAQKFQGRVTITADKSTSTAYMELSSLRSEDTAVYYCAKESGRAVADRWGQGTLVTVSS
VL: DIVMTQSPASLALSLGERATLYCRASHSISSWLAWYQQKPGKAPKLLIYKASTLESGVPSRFSGSGSGTEFTLTISSLQPDDFATYYCQQYKSYPWTFGQGTKLEIK

Target: ookinete protein Pfs25 (Plasmodium falciparum NF54 (3D7 entry …, UniProt P13829))
Assay: ELISA; Pfs25 ELISA; series of mAb concentrations, OD 450 nm

Chain of ookinete protein Pfs25 (Plasmodium falciparum NF54 (P13829 17-196): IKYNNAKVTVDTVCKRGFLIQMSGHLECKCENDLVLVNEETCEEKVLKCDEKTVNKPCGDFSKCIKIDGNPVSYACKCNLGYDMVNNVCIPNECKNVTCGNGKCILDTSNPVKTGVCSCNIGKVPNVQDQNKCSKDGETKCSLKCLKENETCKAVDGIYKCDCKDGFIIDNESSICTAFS

Binder	binding result
B1	no binding
B2	no binding
